Experimental findings from patent US12398194 are described below.

For assay [1], the target named is CD22 (human) (UniProt P20273). In words: SPR (Biacore T200), scFv-Fc captured on an anti-IgG CM5 chip, interaction partner injected, 1:1 Langmuir fit. (In general: SPR reads the build-up and loss of mass on a sensor chip optically.)
Assay [2] deals with CD19 (human) (UniProt P15391). The description is as above.
Sequence of CD19 (human) (P15391 21-278 limits assumed): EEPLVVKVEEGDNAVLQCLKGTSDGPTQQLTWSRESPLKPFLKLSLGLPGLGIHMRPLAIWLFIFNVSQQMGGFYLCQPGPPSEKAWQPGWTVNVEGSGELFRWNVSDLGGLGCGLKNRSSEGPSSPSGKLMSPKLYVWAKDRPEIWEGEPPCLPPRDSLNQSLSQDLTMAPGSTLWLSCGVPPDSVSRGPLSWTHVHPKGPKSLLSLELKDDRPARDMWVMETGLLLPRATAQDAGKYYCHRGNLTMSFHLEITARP

B1: humanized CD22ALAb scFv (scFv, part only; not given: VH-VL linker and Fc, not shown: another chain or arm of the molecule; a dimerising Fc or GST; small tags and cut ends)
scFv: EVQLVESGAEVKKPGSSVKVSCKASGYTFTNYWINWVRQAPGQGLEWIGNIYPSDSFTNYNQKFKDRATLTVDKSTSTAYLELRNLRSDDTAVYYCTRDTQERSWYFDVWGQGTLVTVSSDIVMTQSPATLSVSPGERATLSCRSSQSLVHSNGNTYLHWYQQKPGQAPRLLIYKVSNRFSGVPARFSGSGSGVEFTLTISSLQSEDFAVYYCSQSTHVPWTFGQGTRLEIK
For B1, in assay [1], the Kd – broadly, the equilibrium constant for the complex coming apart – amounted to 32 nM; the koff (as a rule, the rate constant with which the complex falls apart) was 0.00226 s⁻¹; the kon (as a rule, a measure of how fast the partners come together) was found to be 68300 M⁻¹ s⁻¹.

B2: murine CD19ALAb scFv (scFv, part only; not given: VH-VL linker and Fc, not shown: another chain or arm of the molecule; a dimerising Fc or GST; small tags and cut ends)
scFv: QVQLQQSGAELVRPGSSVKISCKASGYAFSSYWMNWVKQRPGQGLEWIGQIWPGDGDTNYNGKFKGKATLTADESSSTAYMQLSSLASEDSAVYFCARRETTTVGRYYYAMDYWGQGTTVTVSSDIQLTQSPASLAVSLGQRATISCKASQSVDYDGDSYLNWYQQIPGQPPKLLIYDASNLVSGIPPRFSGSGSGTDFTLNIHPVEKVDAATYHCQQSTEDPWTFGGGTKLEIK
For B2, in assay [2], the koff is 0.000328 s⁻¹ and the kon came out at 178000 M⁻¹ s⁻¹.
